# From publication PMC7279403, “Zygotic Vsx1 Plays a Key Role in Defining V2a Interneuron Sub-Lineage by Directly Repressing tal1 Transcription in Zebrafish”
# What was measured:
# [1] = target: T1, Vsx1 homeodomain (Vsx1-Homeodomain-His) (zebrafish, UniProt O42250 132-224); assay: competition; 500-fold excess against biotin site 14 probe; only weak complex left; LightShift Chemiluminescent EMSA kit (Pierce), 6% native PAGE; binding buffer as in He et al. [23], salt, pH and temperature not given; settings: protein: recombinant; tags: His in the Results; label: none
# T1 sequence (O42250 132-224): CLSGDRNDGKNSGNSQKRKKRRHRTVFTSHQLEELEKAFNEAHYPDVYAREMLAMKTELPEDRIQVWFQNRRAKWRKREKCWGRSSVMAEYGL
# [2] = target: T1, Vsx1 homeodomain (Vsx1-Homeodomain-His); assay: EMSA; LightShift Chemiluminescent EMSA kit (Pierce), 6% native PAGE; binding buffer as in He et al. [23], salt, pH and temperature not given; settings: protein: recombinant; tags: His in the Results; label: biotin 5' end (labeled probe)
# [3] = target: T1, Vsx1 homeodomain (Vsx1-Homeodomain-His); assay: competition; 500-fold excess against biotin site 12 probe; only weak complex left; LightShift Chemiluminescent EMSA kit (Pierce), 6% native PAGE; binding buffer as in He et al. [23], salt, pH and temperature not given; settings: protein: recombinant; tags: His in the Results; label: none
# [4] = target: T1, Vsx1 homeodomain (Vsx1-Homeodomain-His); assay: competition; 500-fold or more excess against biotin site 14 probe; no competition; LightShift Chemiluminescent EMSA kit (Pierce), 6% native PAGE; binding buffer as in He et al. [23], salt, pH and temperature not given; settings: protein: recombinant; tags: His in the Results; label: none
# [5] = target: T1, Vsx1 homeodomain (Vsx1-Homeodomain-His); assay: competition; 500-fold or more excess against biotin site 12 probe; no competition; LightShift Chemiluminescent EMSA kit (Pierce), 6% native PAGE; binding buffer as in He et al. [23], salt, pH and temperature not given; settings: protein: recombinant; tags: His in the Results; label: none
binder,measurement,setting,value
tal1 site 14 unlabeled wild-type competitor (dsDNA) DNA 1: ACGCAGATCATAATTAGGCGTTTGATC DNA 2: GATCAAACGCCTAATTATGATCTGCGT,binding result,[1],binds
tal1 binding site 14 probe (dsDNA) DNA 1: ACGCAGATCATAATTAGGCGTTTGATC DNA 2: GATCAAACGCCTAATTATGATCTGCGT,binding result,[2],binds
tal1 site 12 unlabeled wild-type competitor (dsDNA) DNA 1: TGGCCGCATAATTAATTTCTGATTGAG DNA 2: CTCAATCAGAAATTAATTATGCGGCCA,binding result,[3],binds
tal1 site 14 mutant competitor (TAATTA to TCGATA) (dsDNA) DNA 1: ACGCAGATCATCGATAGGCGTTTGATC DNA 2: GATCAAACGCCTATCGATGATCTGCGT,binding result,[4],no binding
tal1 binding site 12 probe (dsDNA) DNA 1: TGGCCGCATAATTAATTTCTGATTGAG DNA 2: CTCAATCAGAAATTAATTATGCGGCCA,binding result,[2],binds
tal1 site 12 mutant competitor (TAATTA to TCGATA) (dsDNA) DNA 1: TGGCCGCATCGATCGATTCTGATTGAG DNA 2: CTCAATCAGAATCGATCGATGCGGCCA,binding result,[5],no binding
